Measured values from article PMC5225439, “Nucleoplasmin-like domain of FKBP39 from Drosophila melanogaster forms a tetramer with partly disordered tentacle-like C-terminal segments” (Scientific Reports, 2017).

Tests used:
[1] = biological target: the molecule itself; assay: SEC-MALS; 100 μl of 1 mg/ml FKBP39 on Superdex 200 Increase 10/300 in buffer C (50 mM Na2HPO4, 150 mM NaCl, pH 7.0), 0.5 ml/min
[2] = biological target: the molecule itself; assay: AUC; sedimentation velocity, 20 °C, buffer C (50 mM Na2HPO4, 150 mM NaCl, pH 7.0), 0.2 and 0.5 mg/ml protein, 40,000 rpm, absorbance at 280 nm, continuous c(s) distribution in SEDFIT

B1: 39-kDa FK506-binding protein (FKBP39) from Drosophila melanogaster, full-length, with C-terminal 8x His-tag (natural protein, UniProt P54397 1-357, looked up)
chain: MSMFWGLNMKPERKYSQTIIKSFHISGVALDKGQEAKLYLAAEKQEYIVATVTKAIPQVALDLNFSKGDRIMFYTAGDASVSLLGYLHDIDSEDDEDDDQMTIENLLNSKAIKNSKKSEDDEDENESGEEDEEDTDDDSQIIEEYESFLENGEEEDDDDVDEDNEESGEEDEQDSDDSEAEEEQPKAKVAKLSPGASAKKSGKEQNGVAKKEEAKQQQKKKEKPEAKKEQPKAKEPAKQQPASKDPRTITGGVKIVDQVVGKGEEAKQGKRVSVYYIGRLQSNNKTFDSLLKGKPFKFALGGGEVIKGWDVGVAGMKVGGKRVITCPPHMAYGARGAPPKIGPNSTLVFEVELKAVH
notes: N-terminal NPL 1-86, central charged region 87-256, C-terminal FKBD 257-357; Cloned BamHI/HindIII into the modified vector pQE80L-XH; The forward primer puts TCG (Ser) before the FKBP39 ATG, so a few vector-derived residues precede the natural start; also called full-length FKBP39; recombinant FKBP39; source: E. coli BL21(DE3)pLysS, purified (Co2+-TALON resin, Superdex 200 SEC)
stoichiometry N [1]: 2 | stoichiometry N [2]: 4
